Measured values published in patent US20110077210A1 (published 2011).
One block for each binder: values may come before it.

Tests used:
[1] = target: HDAC1-flag (Homo sapiens (Human), UniProt Q13547 1-482); test: cell-based or functional assay
[2] = target: T1, full length HDAC1 (yeast two-hybrid bait) (Homo sapiens (Human), UniProt Q13547 1-482); test: yeast two-hybrid screen
T1 construct: also called histone deacetylase 1
T1 sequence (Q13547 whole entry): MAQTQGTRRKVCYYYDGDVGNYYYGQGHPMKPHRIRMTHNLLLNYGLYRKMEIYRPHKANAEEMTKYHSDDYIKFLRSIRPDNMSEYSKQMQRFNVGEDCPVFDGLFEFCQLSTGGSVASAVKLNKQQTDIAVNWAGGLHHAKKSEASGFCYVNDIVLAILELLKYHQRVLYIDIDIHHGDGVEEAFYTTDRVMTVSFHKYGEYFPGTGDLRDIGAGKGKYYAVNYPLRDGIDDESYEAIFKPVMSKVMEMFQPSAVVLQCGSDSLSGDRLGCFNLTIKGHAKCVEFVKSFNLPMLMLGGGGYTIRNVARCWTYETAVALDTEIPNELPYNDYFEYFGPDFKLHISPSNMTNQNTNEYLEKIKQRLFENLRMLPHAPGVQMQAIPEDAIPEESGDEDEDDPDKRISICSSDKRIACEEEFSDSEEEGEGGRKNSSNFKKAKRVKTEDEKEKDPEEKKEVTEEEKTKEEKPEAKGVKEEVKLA

Sequence of HDAC1-flag (Q13547 whole entry): as above

- HDAC1 activity: release of [3H]acetic acid from an [3H]acetyl-labeled histone H4 peptide by immunoprecipitated HDAC1 [1]: ~4 fold
B1: V5-APPL (full length APPL protein) (other, not shown: small tags and cut ends)
chain: MPGIDKLPIEETLEDSPQTRSLLGVFEEDATAISNYMNQLYQAMHRIYDAQNELSAATHLTSKLLKEYEKQRFPLGGDDEVMSSTLQQFSKVIDELSSCHAVLSTQLADAMMFPITQFKERDLKEILTLKEVFQIASNDHDAAINRYSRLSKKRENDKVKYEVTEDVYTSRKKQHQTMMHYFCALNTLQYKKKIALLEPLLGYMQAQISFFKMGSENLNEQLEEFLANIGTSVQNVRREMDSDIETMQQTIEDLEVASDPLYVPDPDPTKFPVNRNLTRKAGYLNARNKTGLVSSTWDRQFYFTQGGNLMSQARGDVAGGLAMDIDNCSVMAVDCEDRRYCFQITSFDGKKSSILQAESKKDHEEWICTINNISKQIYLSENPEETAARVNQSALEAVTPSPSFQQRHESLRPAAGQSRPPTARTSSSGSLGSESTNLAALSLDSLVAPDTPIQFDIISPVCEDQPGQAKAFGQGGRRTNPFGESGGSTKSETEDSILHQLFIVRFLGSMEVKSDDHPDVVYETMRQILAARAIHNIFRMTESHLLVTCDCLKLIDPQTQVTRLTFPLPCVVLYATHQENKRLFGFVLRTSSGRSESNLSSVCYIFESNNEGEKICDSVGLAKQIALHAELDRRASEKQKEIERVKEKQQKELNKQKQIEKDLEEQSRLIAASSRPNQASSEGQFVVLSSSQSEESDLGEGGKKRESEA

- binding result [2]: binds
B2: fragment of APPL (aa 489-639) identified in the yeast two-hybrid screen (other)
chain: TKSETEDSILHQLFIVRFLGSMEVKSDDHPDVVYETMRQILAARAIHNIFRMTESHLLVTCDCLKLIDPQTQVTRLTFPLPCVVLYATHQENKRLFGFVLRTSSGRSESNLSSVCYIFESNNEGEKICDSVGLAKQIALHAELDRRASEKQ
notes: Prey from a human brain cDNA library; The fragment fully overlaps the PTB domain (aa 500-634); also called APPL-PTB; fragment of DIP13alpha
